Among the data in the Immune Epitope Database (IEDB) are IC50 and Kd values, retold here.

The target in experiment [1] is HLA-A*03:01. Description: IEDB peptide-MHC binding, purified MHC/competitive/fluorescence; ≥ and ≤ were set here for values at or beyond the usual limits of such assays. To be noted: source organism: Vaccinia virus WR.
Experiment [2] concerns the target HLA-A*24:02. Described as above. To be noted: source organism: Vaccinia virus WR.
The target of experiment [3] is HLA-B*15:01. Described as above. To be noted: source organism: Vaccinia virus WR.
The target of experiment [4] is HLA-A*02:01. The experiment is described as above. The following applies: source organism: Vaccinia virus WR.
The target of experiment [5] is HLA-A*11:01. The experiment is described as above. To be noted: source organism: Vaccinia virus WR.
Experiment [6] deals with HLA-A*01:01. The experiment is described as above. To be noted: source organism: Vaccinia virus WR.
For the next experiment, the target named is HLA-B*15:42. Description: IEDB peptide-MHC binding, purified MHC/competitive/fluorescence; filed as Kd, often an IC50 or EC50 that approximates it; ≥ and ≤ were set here for values at or beyond the usual limits of such assays.
In a further experiment the target is HLA-A*68:23. The description is as above. To be noted: source organism: Mycobacterium tuberculosis variant bovis BCG str. Pasteur 1173P2.
The target in another experiment is HLA-B*83:01. Described as above.
Another experiment concerns the target HLA-B*45:06. Described as above.
In another experiment the target is HLA-C*14:02. Described as above.
The target in experiment [7] is HLA-C*06:02. The description is as above. The following applies: source organism: Mycobacterium tuberculosis variant bovis BCG str. Pasteur 1173P2.
The next experiment has as its target HLA-C*04:01. The description is as above.
In experiment [8] the target is HLA-A*03:01. Description: IEDB peptide-MHC binding, purified MHC/direct/fluorescence; filed as Kd, often an IC50 or EC50 that approximates it; ≥ and ≤ were set here for values at or beyond the usual limits of such assays. To be noted: source organism: Bacillus anthracis.
Another experiment deals with HLA-B*73:01. The description is as above. The following applies: source organism: Bacillus anthracis.
For the next experiment, the target named is HLA-B*58:01. Described as above. To be noted: source organism: Bacillus anthracis.
The next experiment concerns the target HLA-B*48:01. The experiment is described as above. The following applies: source organism: Bacillus anthracis.
The target in another experiment is HLA-A*68:02. The experiment is described as above. To be noted: source organism: Bacillus anthracis.
For a further experiment, the target named is HLA-B*15:17. The experiment is described as above. The following applies: source organism: Bacillus anthracis.
Experiment [9] has as its target HLA-B*15:01. Described as above. The following applies: source organism: Bacillus anthracis.
For the next experiment, the target named is HLA-A*26:03. The experiment is described as above. To be noted: source organism: Bacillus cereus H3081.97.
The target of the next experiment is HLA-B*57:01. The description is as above. The following applies: source organism: Bacillus anthracis.
The target in a further experiment is HLA-B*18:01. The experiment is described as above. To be noted: source organism: Bacillus anthracis.
Another experiment concerns the target HLA-B*07:02. The description is as above. The following applies: source organism: Bacillus anthracis.
The target of a further experiment is HLA-B*27:05. The description is as above. To be noted: source organism: Bacillus anthracis.
The target in experiment [10] is HLA-A*02:01. The experiment is described as above. The following applies: source organism: Bacillus anthracis.
Experiment [11] addresses HLA-A*11:01. The experiment is described as above. The following applies: source organism: Bacillus anthracis.
The next experiment addresses HLA-A*26:02. The description is as above. The following applies: source organism: Bacillus cereus H3081.97.
Experiment [12] deals with HLA-A*01:01. The description is as above. To be noted: source organism: Bacillus anthracis.
The target of a further experiment is HLA-A*69:01. Described as above. To be noted: source organism: Bacillus anthracis.
Another experiment concerns the target HLA-B*39:01. The description is as above. The following applies: source organism: Bacillus cereus H3081.97.
Another experiment concerns the target HLA-A*31:01. The description is as above. To be noted: source organism: Bacillus anthracis.
The target in the next experiment is HLA-B*40:02. Description: IEDB peptide-MHC binding, cellular MHC/competitive/fluorescence; ≥ and ≤ were set here for values at or beyond the usual limits of such assays. The following applies: source organism: Homo sapiens.
Experiment [13] has as its target HLA-A*24:02. The description is as above. To be noted: source organism: Human herpesvirus 5 strain AD169.
The target of another experiment is HLA-A*03:19. Description: IEDB peptide-MHC binding, purified MHC/competitive/fluorescence; filed as Kd, often an IC50 or EC50 that approximates it; ≥ and ≤ were set here for values at or beyond the usual limits of such assays. To be noted: source organism: human gammaherpesvirus 4.
In the next experiment the target is HLA-B*46:01. The description is as above. To be noted: source organism: Giardia lamblia ATCC 50803.
Another experiment deals with HLA-B*27:20. Described as above. The following applies: source organism: Giardia lamblia ATCC 50803.
A further experiment concerns the target HLA-C*15:02. The experiment can be described thus: IEDB peptide-MHC binding, purified MHC/direct/fluorescence; filed as Kd, often an IC50 or EC50 that approximates it; ≥ and ≤ were set here for values at or beyond the usual limits of such assays. The following applies: source organism: Giardia lamblia ATCC 50803.
The target in another experiment is HLA-C*05:01. The description is as above. The following applies: source organism: Giardia lamblia ATCC 50803.
The target in a further experiment is HLA-C*03:03. The experiment is described as above. The following applies: source organism: Giardia lamblia ATCC 50803.
The target of a further experiment is HLA-C*12:03. The experiment is described as above. To be noted: source organism: Giardia lamblia ATCC 50803.
Experiment [14] has as its target HLA-C*06:02. Described as above. The following applies: source organism: Giardia lamblia ATCC 50803.
The target of the next experiment is HLA-C*08:02. The description is as above. The following applies: source organism: Giardia lamblia ATCC 50803.
Where [15] appears, read: source organism: Mycobacterium tuberculosis variant bovis BCG str. Pasteur 1173P2.
Setting [16] is: source organism: human gammaherpesvirus 4.
The mark [17] stands for this setting: source organism: Giardia lamblia ATCC 50803.

pIC50, pKd: −log10 of the molar value.

As usually defined, the pIC50 is the IC50 on a negative log10 scale, so that one unit is a factor of ten. As to ITCKAFGLY, the pIC50 with HLA-A*03:01 [1] is 4.81; in the experiment with HLA-A*24:02 [2] it was no more than 4.07; in the experiment with HLA-B*15:01 [3], 4.85; with HLA-A*02:01 [4] it was no more than 3.76; in the experiment with HLA-A*11:01 [5] it was 5.55; with HLA-A*01:01 [6] it was 5.81.

By pKd is commonly meant −log10 of the Kd, conventionally taken in molar units. Take MAAVRTTAL: the negative-log Kd (pKd) with HLA-B*15:42 (setting [15]) was no more than 5.30; with HLA-A*68:23, 8.26; with HLA-B*83:01 (setting [15]), 6.29; with HLA-B*45:06 (setting [15]) it was no more than 5.30; with HLA-C*14:02 (setting [15]), 7.84; in the experiment with HLA-C*06:02 [7] it was 6.98. Moreover, the negative-log Kd (pKd) with HLA-C*04:01 (setting [15]) was no more than 4.70.

PRFGSCYFL: the pKd with HLA-A*03:01 [8], with HLA-B*73:01, with HLA-B*58:01, with HLA-B*48:01, in the experiment with HLA-A*68:02 and with HLA-B*15:17 was no more than 4.70 throughout. The negative-log Kd (pKd) was no more than 4.70 with HLA-B*15:01 [9]; no more than 4.70 with HLA-A*26:03; no more than 4.70 with HLA-B*57:01; no more than 4.70 with HLA-B*18:01; 5.57 with HLA-B*07:02; no more than 4.70 with HLA-B*27:05. Moreover, the pKd with HLA-A*02:01 [10], with HLA-A*11:01 [11], in the experiment with HLA-A*26:02, with HLA-A*01:01 [12], in the experiment with HLA-A*69:01 and with HLA-B*39:01 was no more than 4.70 throughout. Further, the pKd in the experiment with HLA-A*31:01 was no more than 4.70.

As to SSYGNIRAV, the pIC50 with HLA-B*40:02 was 5.74.

VYALPLKML showed a pIC50 in the experiment with HLA-A*24:02 [13] of 5.12.

Consider WPTPKTHPV, for which the pKd was no more than 5.30 with HLA-B*15:42 (setting [16]); 5.46 in the experiment with HLA-B*83:01 (setting [16]); no more than 5.30 in the experiment with HLA-B*45:06 (setting [16]); 6.85 in the experiment with HLA-C*14:02 (setting [16]); 5.97 in the experiment with HLA-A*03:19.

Regarding YMRERFEPM, the negative logarithm of the Kd (pKd) with HLA-B*15:42 (setting [17]) was no more than 5.30; with HLA-B*83:01 (setting [17]), no more than 5.30; in the experiment with HLA-B*46:01, 7.66; in the experiment with HLA-B*45:06 (setting [17]), no more than 5.30; in the experiment with HLA-C*14:02 (setting [17]) it was 9.52; in the experiment with HLA-C*04:01 (setting [17]), no more than 5.30. Further, the negative logarithm of the Kd (pKd) was 9.30 with HLA-B*27:20; 7.15 in the experiment with HLA-C*15:02; no more than 4.70 with HLA-C*05:01; 6.34 with HLA-C*03:03; 7.42 with HLA-C*12:03; 7.66 in the experiment with HLA-C*06:02 [14]. Moreover, the pKd in the experiment with HLA-C*08:02 was no more than 4.70.
